Blank lines part the entries; values can stand above or below the binder they belong to. Ends that are not written are not given here. NH2‑PEG4 = N-terminal amino-PEG4 group (N-terminal PEGylation)
How the values were obtained:
[1] = molecular target: human IgG (human); assay: SPR, synthetic peptide
[2] = molecular target: human IgG (human); assay: SPR, synthetic peptide on human IgG
[3] = molecular target: human IgG (human); assay: SPR sensorgram analysis
[4] = molecular target: human IgG (human); assay: affinity column with 1.2 µmol immobilized peptide, 1 mL human serum applied, elution at pH 2.5, absorbance

Binder: PDCTYTNGNLVWCTF [GFc-C35-2/16]
- Kd [1]: 25 µM

Binder: GPDCTYTNGNLVWCTFH (not fully specified (bridges); cysteine pairing not given here) [GFc-C35]
- Kd [1]: 14 µM

Binder: GPDCAYHRGELVWCSFH [C35A (T15S)]
- Kd [2]: 14.4 nM

Binder: DCTYTNGRLVWCT [GFc-C35-3/15 (N10R)]
- Kd [1]: 42 µM

Binder: DCTFTNGNLVWCT [GFc-C35-3/15 (Y6F)]
- Kd [1]: 2100 µM

Binder: DCTYTNGDLVWCT [GFc-C35-3/15 (N10D)]
- Kd [1]: 80 µM

Binder: DCTYTNGNMVWCT [GFc-C35-3/15 (L11M)]
- Kd [1]: 280 µM
- ratio of Kd against GFc-C35-3/15 [1]: 2 fold

Binder: SPDCAYHRGELVWCTFH [C35A (G1S)]
- Kd [2]: 9.3 nM

Binder: DCAYTNGNLVWCT [GFc-C35-3/15 (T5A)]
- Kd [1]: 61 µM

Binder: DCTWTNGNLVWCT [GFc-C35-3/15 (Y6W)]
- Kd [1]: 50 µM

Binder: SDDCAYHRGELVWCTFY (not fully specified; cysteine pairing not given here) [C35A (P2D, H17Y)]
- Kd [2]: 13 nM

Binder: DCTYTNGNLVWCS [GFc-C35-3/15 (T15S)]
- Kd [1]: 34 µM
- ratio of Kd against GFc-C35-3/15 [1]: 0.25 fold

Binder: DCTYTLGNLVWCT [GFc-C35-3/15 (N8L)]
- Kd [1]: 260 µM

Binder: DCSYTNGNLVWCT [GFc-C35-3/15 (T5S)]
- Kd [1]: 120 µM

Binder: DCTYTNGQLVWCT [GFc-C35-3/15 (N10Q)]
- Kd [1]: 160 µM

Binder: DCTYSNGNLVWCT [GFc-C35-3/15 (T7S)]
- Kd [1]: 26 µM

Binder: GPDCAYHRGELVWCTHH [C35A (F16H)]
- Kd [2]: 11.4 nM

B1: N-terminally PEGylated C35A-3/15 (NH2-PEG4-…-NH2) (peptide)
peptide: {NH2‑PEG4}-DCAYHRGELVWCT-NH2
modifications: not fully specified (bridges); printed as NH2-PEG4-DCAYHRGELVWCT-NH2; cysteine pairing not given here; also: coupled through PEG4 amine to HiTrap NHS-activated HP column
- protein yield of the eluted fraction D [4]: 10.4 mg

Binder: GPSCAYHRGELVWCTFH [C35A (D3S)]
- Kd [2]: 28.5 nM

Binder: RCTYTNGNLVWCT [GFc-C35-3/15 (D3R)]
- Kd [1]: 69 µM

Binder: GPDCAYHRGELVWCTFY [C35A (H17Y)]
- Kd [2]: 12 nM

Binder: GDDCAYHRGELVWCTFH [C35A (P2D)]
- Kd [2]: 13.3 nM

Binder: SPDCAYHRGELVWCTFY [C35A (G1S, H17Y)]
- Kd [2]: 11 nM

Binder: DCTYTNGNLVWCT [GFc-C35-3/15]
- Kd [1]: 130 µM

Binder: DCTYTNGELVWCT [GFc-C35-3/15 (N10E)]
- Kd [1]: 26 µM

Binder: DCTYRNGNLVWCT [GFc-C35-3/15 (T7R)]
- Kd [1]: 83 µM

Continued by falling Kd [1], values first:

- Kd [1]: 12 µM
- ratio of Kd against GFc-C35-3/15 [1]: 0.1 fold
Binder: DCTYTNGNLIWCT [GFc-C35-3/15 (V12I)]

- Kd [1]: 8 µM
- fold decrease of Kd against GFc-C35-3/15 [1]: 18 fold
Binder: DCTYTRGNLVWCT [GFc-C35-3/15 (N8R)]

- Kd [1]: 4.8 µM
Binder: DCTYHRGNLIWCT [GFc-C35-3/15 (T7H, N8R, V12I)]

- Kd [1]: 3 µM
- fold increase of affinity against GFc-C35-3/15 [1]: 50 fold
Binder: DCTYHNGNLVWCT [GFc-C35-3/15 (T7H)]

- Kd [1]: 2 µM
Binder: DCTWHRGNLVWCT [GFc-C35-3/15 (T7H, N8R, Y6W)]

- Kd [1]: 1.1 µM
Binder: DCTYHRGNLVWCT [GFc-C35-3/15 (T7H, N8R)]

- Kd [1]: 0.27 µM
Binder: DCTYHRGELVWCT [GFc-C35-3/15 (T7H, N8R, N10E)]

- Kd [1]: 0.26 µM
- Kd [3]: 257 nM
- koff [3]: 0.014 s⁻¹
- kon [3]: 54000 M⁻¹ s⁻¹
- ratio of ka against GFc-C35-3/15 (T5A, T7H, N8R, N10E) [3]: < 0.125 fold
- ratio of kd against GFc-C35-3/15 (T5A, T7H, N8R, N10E) [3]: 0.5 fold
Binder: DCAWHRGELVWCT [GFc-C35-3/15 (T5A, Y6W, T7H, N8R, N10E)]

- Kd [1]: 0.25 µM
Binder: DCAYHRGNLVWCT [GFc-C35-3/15 (T7H, N8R, T5A)]

- Kd [1]: 0.147 µM
Binder: RCAYHRGELVWCS [GFc-C35-3/15 (D3R, T5A, T7H, N8R, N10E, T15S)]

- Kd [1]: 0.054 µM
- fold higher affinity than GFc-C35-3/15 [1]: 2400 fold
- koff [3]: 0.025 s⁻¹
- kon [3]: 460000 M⁻¹ s⁻¹
- ratio of Kd against GFc-C35-3/15 [3]: 0.0417 fold
Binder: DCAYHRGELVWCT (not fully specified (bridges); cysteine pairing not given here) [GFc-C35-3/15 (T5A, T7H, N8R, N10E)]

- Kd [1]: 0.042 µM
- ratio of Kd against C35A-3/15 (D3R, T15S) [1]: 0.333 fold
Binder: GPRCAYHRGELVWCSFH [C35A (D3R, T15S)]

- Kd [1]: 0.009 µM
- ratio of Kd against C35A-3/15 [1]: 0.2 fold
Binder: GPDCAYHRGELVWCTFH [C35A]
